The values below come from patent US20210388110A1.

Sequences and labels used below:
B1: TR01H040-E2702GsKsc/H0610-E2704sEpsc/L0201-k0 (bispecific antibody, human IgG4 S228P, kappa, N297A)
heavy 1: QVQLVESGGGLVQPGRSLRLSCAASGFTFSNAWMHWVRQAPGKGLEWVAQIKDKSQNYATYYAESVKGRFTISRADSKNSIYLQMNSLKTEDTAVYYCRYVHYSASYGVDAWGQGTTVTVSSASTKGPSVFPLAPCSRSTSESTAALGCLVKDYFPEPVTVSWNSGALTSGVHTFPAVLQSSGLYSLSSVVTVPSSSLGTKTYTCNVDHKPSNTKVDKRVESKYGPPCPPCPAPEFRGGPKVFLFPPKPKDTLMISRTPEVTCVVVDVSQEDPEVQFNWYVDGVEVHNAKTKPREEQFASTYRVVSVLTVLHQDWLNGKEYKCKVSNKGLPSSIEKTISKAKGQPREPQVYTLPPSQKEMTKNQVSLTCLVKGFYPSDIAVEWESNGQPENNYKTTPPVLDSDGSFFLYSKLTVDKSRWQEGNVFSCSVMHEALHNRYTQKSLSLSP
heavy 2: QVQLVQSGAEVKKPGASVKVSCKASGYTFTDYEMHWIRQPPGQGLEWIGAIDGKTPDTAYSQKFKGRVTLTADKSTSTAYMELSSLTSEDTAVYYCTRFYSYTYWGQGTLVTVSSASTKGPSVFPLAPCSRSTSESTAALGCLVKDYFPEPVTVSWNSGALTSGVHTFPAVLQSSGLYSLSSVVTVPSSSLGTQTYTCNVDHKPSNTKVDKRVESKYGPPCPPCPAPEFRGGPKVFLFPPKPKDTLMISRTPEVTCVVVDVSQEDPEVQFNWYVDGVEVHNAKTKPREEQFASTYRVVSVLTVLHQDWLNGKEYKCKVSNKGLPSSIEKTISKAKGQPREPQVYTLPPSQEEMTKNQVSLTCLVKGFYPSDIAVEWESNGQPENNYKTTPPVLDSDGSFFLYSKLTVDKSRWQEGNVFSCSVMHEALHNHYTQESLSLSP
light: DIVMTQSPLSLPVTPGEPASISCRSSQPPVHSNRNTYLHWYQQKPGQAPRLLIYKVSNRFSGVPDRFSGSGSGTDFTLKISRVEAEDVGVYYCGQGTQVPYTFGQGTKLEIKRTVAAPSVFIFPPSDEQLKSGTASVVCLLNNFYPREAKVQWKVDNALQSGNSQESVTEQDSKDSTYSLSSTLTLSKADYEKHKVYACEVTHQGLSSPVTKSFNRGEC
B2: TR01H067-E2702GsKsc/GCH054-E2704sEpsc/L0222-k0 (bispecific antibody, human IgG4 S228P, kappa, N297A)
heavy 1: B1 heavy 1 with A75D, I81L, S104A
heavy 2: B1 heavy 2 with K19T, Q43E, K54E, Q62E
light: B1 light with P28S, L38I, H39Q, G94Y
B3: TR01H109-E2702GsKsc/GCH094-E2704sEpsc/L0011-k0 (bispecific antibody, human IgG4 S228P, kappa, N297A)
heavy 1: B1 heavy 1 with Y62V, A75D, I81L, S104A, S106G
heavy 2: B1 heavy 2 with K19T, I37V, P40A, Q43E, I48M, K54E, Q62E
light: B1 light with P29L
B4: TR01H067-E2702GsKsc/GCH054-E2704sEpsc/L0201-k0 (bispecific antibody, human IgG4 S228P, kappa, N297A)
heavy 1: B1 heavy 1 with A75D, I81L, S104A
heavy 2: B1 heavy 2 with K19T, Q43E, K54E, Q62E
light: B1 light
B5: TR01H082-E2702GsKsc/GCH094-E2704sEpsc/L0011-k0 (bispecific antibody, human IgG4 S228P, kappa, N297A)
heavy 1: B1 heavy 1 with A75D, I81L, S104A, S106G
heavy 2: B1 heavy 2 with K19T, I37V, P40A, Q43E, I48M, K54E, Q62E
light: B1 light with P29L
B6: TR01H113-E2702sKsc/GCH065-E2704sEpsc/L0011-k0 (bispecific antibody, human IgG4 S228P, kappa, N297A)
heavy 1: B1 heavy 1 with L11V, R16G, Y62V, S104A, S106G, A111I, R437H
heavy 2: B1 heavy 2 with K19T, Q43E, K54P, Q62E
light: B1 light with P29L
B7: TR01H109-E2702GsKsc/GCH065-E2704sEpsc/L0011-k0 (bispecific antibody, human IgG4 S228P, kappa, N297A)
heavy 1: B1 heavy 1 with Y62V, A75D, I81L, S104A, S106G
heavy 2: B1 heavy 2 with K19T, Q43E, K54P, Q62E
light: B1 light with P29L
B8: TR01H040-E2702GsKsc/H0610-E2704sEpsc/L0203-k0 (bispecific antibody, human IgG4 S228P, kappa, N297A)
heavy 1: B1 heavy 1
heavy 2: B1 heavy 2
light: B1 light with P28S, L38I

Where a chain is given by its changes, count along the chain named.

The target of this test is extracellular matrix (BD Matrigel). Description: ECL on Matrigel-coated plate, relative to MRAH-G1d/MRAL-k0.
Turning to B1, the ECM binding ratio (standard = 1) was determined as 0.8.

Consider B2, for which the ECM binding ratio (standard = 1) stood at 0.6. Regarding B3, the ECM binding ratio (standard = 1) came to 0.4. With B4 the figure was 0.5; with B5, 0.7; with B6, 0.3.

For B7, the ECM binding ratio (standard = 1) is 0.7.

For B8, the ECM binding ratio (standard = 1) was 0.8.
